Target: the molecule itself
Test: SEC

B1: Methanococcus jannaschii FKBP26 fragment 231-ΔIF (1-231Δ83-G-A-G-134) (domain or fragment)
chain: MVEKGKMVKISYDGYVDGKLFDTTNEELAKKEGIYNPAMIYGPVAIFAGEGQVLPGLDEAILEMDVGEEREVVLPPEKAFGKRGAGLAGKEVKYRIKIEEVVDDKKNIVKEIVKMYVPRLSDVKVTIRNGTVKIELPEFAPFIPNIQTAKMAIANEILKRLEDAEKVSFVETFERKKETKEENK
  stoichiometry N: 2

B2: Methanococcus jannaschii FKBP26, construct 231 (full-length, residues 1-231) (natural protein, UniProt Q58235 1-231, looked up)
chain: MVEKGKMVKISYDGYVDGKLFDTTNEELAKKEGIYNPAMIYGPVAIFAGEGQVLPGLDEAILEMDVGEEREVVLPPEKAFGKRDPSKIKLIPLSEFTKRGIKPIKGLTITIDGIPGKIVSINSGRVLVDFNHELAGKEVKYRIKIEEVVDDKKNIVKEIVKMYVPRLSDVKVTIRNGTVKIELPEFAPFIPNIQTAKMAIANEILKRLEDAEKVSFVETFERKKETKEENK
  stoichiometry N: 2

From PMC3099347 (Journal of molecular biology, 2011)
